Substitutions are numbered along the chain they refer to.
T1: FSTL1 (Homo sapiens, UniProt Q12841)
T1 sequence (Q12841 21-308): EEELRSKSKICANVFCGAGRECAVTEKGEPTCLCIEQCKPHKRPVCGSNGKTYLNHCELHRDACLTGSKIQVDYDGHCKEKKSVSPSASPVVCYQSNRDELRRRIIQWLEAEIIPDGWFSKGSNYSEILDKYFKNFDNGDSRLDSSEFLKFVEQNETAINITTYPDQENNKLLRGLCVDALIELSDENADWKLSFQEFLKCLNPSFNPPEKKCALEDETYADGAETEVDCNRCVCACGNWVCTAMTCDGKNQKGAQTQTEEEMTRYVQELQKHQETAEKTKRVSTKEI

T2: human FSTL1 (Homo sapiens, UniProt Q12841)
T2 construct: AAA linker + 10xHis (C); made in house; host or cells: Expi293 (transient expression; purified from culture supernatant on HisPur Cobalt Resin)
T2 sequence (Q12841 with tags, fused parts or gaps): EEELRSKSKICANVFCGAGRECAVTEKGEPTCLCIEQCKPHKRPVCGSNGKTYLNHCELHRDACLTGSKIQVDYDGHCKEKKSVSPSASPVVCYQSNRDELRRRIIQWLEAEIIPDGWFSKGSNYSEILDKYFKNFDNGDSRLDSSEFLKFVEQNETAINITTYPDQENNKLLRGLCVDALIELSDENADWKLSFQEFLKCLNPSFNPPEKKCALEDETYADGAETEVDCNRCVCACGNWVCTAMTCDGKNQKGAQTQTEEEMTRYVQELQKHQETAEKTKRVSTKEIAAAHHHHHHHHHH

B1: #5-43: chicken-mouse chimeric anti-FSTL1 antibody clone; variable regions SEQ ID NO: 779 (light), 781 (heavy) (antibody, V domains shown)
VH: AVTLDESGGGLQTPGGGLSLVCKGSGFTFSSFNMFWVRQAPGKGLEWVAGIGKDGGTGYGAAVDGRATISKDSGQSTLRLQLNNLRAEDTGTYYCAKAAGGCSYDWCGAYTGDIDTWGHGTEVIVSS
VL: ASTQPSSVSANPGEAVKITCSGGSGSYYGWYQQKSPGSAPVTVIYNNNQRPSDIPSRFSGSKSGSTATLTITGVQAEDEAVYFCGGYDSSTGHGGIFGAGTTLTVL
modifications: mouse constant regions
B2: #6-55: chicken-mouse chimeric anti-FSTL1 antibody clone; variable regions SEQ ID NO: 783 (light), 785 (heavy) (antibody, V domains shown)
VH: AVTLDESGGGLQTPGGALSLVCKGSGFTFTSVTMQWVRQAPGKGLEWVASVCSGSSTYYAPAVKGRATISRDNGQSTVRLQLSNLRPEDTGTYYCAKIAGRARWSCTSAAYNIDAWGHGTEVIVSS
VL: ASTQPSSVSAIPGETVKITCSGGGNNYGWYQQRSPGSAPVTVIYYNDNRPSNIPSRFSGSTSGSTSTLTITGVQADDEAIYYCGSWDSNTDSGIFGAGTTLTVL
modifications: mouse constant regions
B3: #7-34: chicken-mouse chimeric anti-FSTL1 antibody clone; variable regions SEQ ID NO: 787 (light), 789 (heavy) (antibody, V domains shown)
VH: AVTLDESGGGLQTPGGGLSLVCKASGFTFSSVTMQWVRQAPGKGLEWVASICSGSSTYYGPAVKGRATISRDNGQNTVRLQLNNLRAEDTATYYCAKIVGRGRWSCTSAAYNIDAWGHGTEVIVSS
VL: B2 VL with I11N, R33K, D47N, D76E, I80V, W86Y, D87E, S88G, N89S
modifications: mouse constant regions
B4: #33: chicken-mouse chimeric anti-FSTL1 antibody clone; variable regions SEQ ID NO: 823 (light), 825 (heavy) (antibody, V domains shown)
VH: AVTLDESGGGLQTPGGGLSLVCKASGFTFSSFNMNWVRQAPGKGLEYVAEISGTGSSTYYGSAVKGRATISRDNGQSTVRLQLNNLRAEDTATYFCARGDGAYSIDAWGHGTEVIVSS
VL: ASTQPSSVSANPGETVEITCSGDSSYYGWFQQKSPGSAPVTVIYDNTNRPSDIPSRFSGSKSGSTATLTITGVRAEDEAVYYCGGYDSSTYDGIFGAGTTLTVL
modifications: mouse constant regions

Legend:
[1] = system: induction of mesenchymal stem cells (MSCs) by FSTL1; test: Inhibitory activity against MSC induction, ALCAM-/PDGFRA-positive cells (Example 4); format: cell-based; conditions: mouse bone marrow cells; FSTL1 50 ng/mL; antibody 10 μg/mL; 11 days; vs control antibody
Procedure: It is known that when bone marrow cells are stimulated with FSTL1, mesenchymal stem cells (MSCs) having pluripotency or self-proliferative capacity grow (Cancer Research 73: 6185, 2013). Thus, 2×10^7 cells/well of bone marrow cells collected from the thigh bone of a C57BL/6 mouse were suspended in 3 mL/well of RPMI1640 (GIBCO/Thermo Fisher Scientific Inc., Cat. No. C11875500BT) medium containing 2% fetal bovine serum, supplemented with 50 ng/mL (final concentration) of FSTL1 (R&D Systems, Inc. Cat#1694-FN-050) and 10 μg/mL of the anti-FSTL1 antibody (#5-2, #5-3, #5-8, #5-10, #5-43, #6-55, or #7-34) or its isotype mouse IgG (anti-DNP antibody) as a control antibody “Control”, and cultured under stimulation (6-well plate). 11 days thereafter, the number of cells was counted while the cells were stained with a PE-labeled anti-ALCAM antibody
(eBioscience, Cat. No. 12-1661-82) and a PE-labeled anti-PDGFRA antibody (eBioscience, Cat#12-1401-81) in order to examine the expression of MSC markers, and the contents of ALCAM-positive cells and PDGFR-positive cells were analyzed by flow cytometry using FACScan (Becton, Dickinson and Company, Code. BECTON-DICKINSON-FACSCAN) to calculate the number of each positive cell per culture.
It is known that when bone marrow cells are stimulated with FSTL1, mesenchymal stem cells (MSCs) having pluripotency or self-proliferative capacity grow (Cancer Research 73: 6185, 2013). […] 11 days thereafter, the number of cells was counted while the cells were stained with a PE-labeled anti-ALCAM antibody (eBioscience, Cat. No. 12-1661-82) and a PE-labeled anti-PDGFRA antibody (eBioscience, Cat#12-1401-81) in order to examine the expression of MSC markers, and the contents of ALCAM-positive cells and PDGFR-positive cells were analyzed by flow cytometry using FACScan (Becton, Dickinson and Company, Code. BECTON-DICKINSON-FACSCAN) to calculate the number of each positive cell per culture.

FSTL1 = target: T1, FSTL1; test: Inhibition of MSC induction by FSTL1 in mouse bone marrow cells, ALCAM- and PDGFRA-positive cells (Example 4); format: cell-based; set-up: purchased R&D Systems, Inc. 1694-FN-050; conditions: FSTL1 50 ng/mL, antibody 10 μg/mL, 11 days, vs control anti-DNP antibody
Procedure: It is known that when bone marrow cells are stimulated with FSTL1, mesenchymal stem cells (MSCs) having pluripotency or self-proliferative capacity grow (Cancer Research 73: 6185, 2013). Thus, 2×10^7 cells/well of bone marrow cells collected from the thigh bone of a C57BL/6 mouse were suspended in 3 mL/well of RPMI1640 (GIBCO/Thermo Fisher Scientific Inc., Cat. No. C11875500BT) medium containing 2% fetal bovine serum, supplemented with 50 ng/mL (final concentration) of FSTL1 (R&D Systems, Inc. Cat#1694-FN-050) and 10 μg/mL of the anti-FSTL1 antibody (#5-2, #5-3, #5-8, #5-10, #5-43, #6-55, or #7-34) or its isotype mouse IgG (anti-DNP antibody) as a control antibody “Control”, and cultured under stimulation (6-well plate). 11 days thereafter, the number of cells was counted while the cells were stained with a PE-labeled anti-ALCAM antibody (eBioscience, Cat. No. 12-1661-82) and a PE-labeled anti-PDGFRA antibody (eBioscience, Cat#12-1401-81) in order to examine the expression of MSC markers, and the contents of ALCAM-positive cells and PDGFR-positive cells were analyzed by flow cytometry using FACScan (Becton, Dickinson and Company, Code. BECTON-DICKINSON-FACSCAN) to calculate the number of each positive cell per culture.

human FSTL1 [2] = target: T2, human FSTL1; test: ELISA binding activity of purified antibody against human FSTL1 (Example 2); conditions: FIG. 1B/31B
Procedure: (§1) The reactivity of the obtained antibody clones described above with FSTL1 was evaluated by ELISA under the following conditions.
(Table 2 ELISA conditions for binding activity evaluation of purified antibody) Antibodies used: anti-dinitrophenyl (DNP) antibody (negative control), #5-2, #5-3, #5-8, #5-10, #5-43, #6-55, and #7-34
FIGS. 2 and 3 show results of evaluating binding activity under the condition of Table 3 as to clones differing in screening and antibody purification timings.
(§2) Antibodies used: anti-dinitrophenyl (DNP) antibody (negative control), #5-2, #5-3, #5-8, #5-10, #5-43, #6-55, and #7-34
FIGS. 32 and 33 show results of evaluating binding activity under the condition of Table 3 as to clones differing in screening and antibody purification timings.

human FSTL1 [3] = target: T2, human FSTL1; test: ELISA, binding activity of purified antibody against human FSTL1 (Example 2); conditions: cross reactivity test; antibody diluted from 1000 ng/ml
Procedure: as §1, §2
FIGS. 64 and 65 show results of evaluating binding activity under the condition of Table 3 as to clones differing in screening and antibody purification timings.

[4] = system: GFP+F10-snail+ tumor cells; test: In vivo drug efficacy of each anti-FSTL1 antibody clone, GFP+F10-snail+ tumor model (Example 32); set-up: species or system mouse; conditions: intraperitoneal 10 mg/kg on days 4 and 7; vs control antibody
Procedure: • Day 0: transplantation of GFP+F10-snail+ tumor cells (3×10^5 cells subcutaneously & 2×10^4 cells intravenously) • Day 4: intraperitoneal administration of the antibody (first dose, 10 mg/kg) • Day 7: intraperitoneal administration of the antibody (second dose, 10 mg/kg)
Subcutaneous tumor was measured 4, 7, 10, 14, 17, 20, and 23 days after tumor cell transplantation.
Experiment Group (n=5) Control IgG (anti-DNP mAb) • #6-55 • #7 • #10 • #13 • #33
• Day 0: transplantation of GFP+F10-snail+ tumor cells (3×10^5, cells subcutaneously & 2×10^4 cells intravenously) • Day 4: intraperitoneal administration of the antibody (first dose, 10 mg/kg) • Day 7: intraperitoneal administration of the antibody (second dose, 10 mg/kg)

| Molecule | inhibitory activity against the expansion of ALCAM-positive cells and PDGFRA-positive cells by FSTL1 [1] | inhibitory activity against the expansion of ALCAM-positive cells and PDGFRA-positive cells by FSTL1 (FSTL1) | binding activity against human FSTL1 (human FSTL1 [2]) | binding activity against human FSTL1 (human FSTL1 [3]) | mouse survival period (life-prolonging effect) [4] | suppressive activity against subcutaneous tumor growth [4] |
| --- | --- | --- | --- | --- | --- | --- |
| B1 | slightly strong tendency of inhibitory activity | slightly strong tendency of inhibitory activity |  |  |  |  |
| B2 | slightly strong tendency of inhibitory activity | slightly strong tendency of inhibitory activity | specific and equivalently strong binding activity | specific and equivalently strong binding activity | statistically significant life-prolonging effect | statistically significant suppressive activity |
| B3 | slightly strong tendency of inhibitory activity | slightly strong tendency of inhibitory activity | specific and equivalently strong binding activity | specific and equivalently strong binding activity |  |  |
| B4 |  |  |  |  | therapeutic effects equal to or higher than those of #6-55 |  |

Source: US20180021429A1, “ANTICANCER AGENTS OR ANTIMETASTATIC AGENTS USING FSTL1 AND COMBINATION DRUG THEREOF” (PHARMA FOODS INTERNATIONAL CO., LTD., priority 2015, published 2018)
